Data reported in patent publication US12116636B2, “Methods for evaluating tumor cell spheroids using 3D microfluidic cell culture device” (Dana-Farber Cancer Institute, Inc., priority 2017, dated 2024).

Test system: MC38 MDOTS
Experiment: RNA-seq of MDOTS after ex vivo treatment
Assay type: cell-based, murine
Settings: Day 6
From the text: RNA is collected from a subset of the MDOTs within the device after the supernatants have been collected and cDNA libraries for RNA sequencing is generated to evaluate global transcriptome changes associated with treatment regimen on single samples per drug treatment. These types of data may be generated from a variety of clinical specimens. The RNA Advance tissue RNA isolation method (Beckman Coulter) is utilized, which is a bead wash based separation technique, which facilitates elution volumes amenable to sample input for RNA-Seq library preparation. Automated library preparation can be performed using as little as 10 ng of good quality RNA. The RNA Access method from Illumina is utilized, which enriches for the coding region of the genome. Libraries are sequenced on the NextSeq500 platform, as 75 bp Single End to generate approximately 20 million reads per sample. With appropriate adaptors, 24 samples are multiplexed on each NextSeq500 run. The concentration [ng/ul], yield [ng] and quality of RNA (high RIN #by bioanalyzer) derived from the MDOTS are more than sufficient to ensure good quality libraries for subsequent sequencing (FIG. 15).
The STAR RNA sequencing alignment tool (Spliced Transcripts Alignment to a Reference) [STAR_2.5.0a]) is utilized to align the data to the genome (RefSeq gene annotations). […]

B1: IFNγ: interferon gamma used as MC38 MDOTS treatment in RNA-seq (protein, UniProt P01580 23-155, looked up)
Interferon gamma: HGTVIESLESLNNYFNSSGIDVEEKSLFLDIWRNWQKDGDMKILQSQIISFYLRLFEVLKDNQAISNNISVIESHLITTFFSNSKAKKDAFMSIAKFEVNNPQVQRQAFNELIRVVHQLLPESSLRKRKRSRC
expression of IFNγ genes incl. CXCL10, CXCL11, PD-L1, IDO1, IDO2 (RNA-seq) in MC38 MDOTS: induced
